According to paper PMC9406121:

Columns and labels:
[1] = target: DT390-IL-13 single-chain fusion cytotoxin (monomer) (Corynebacterium diphtheriae | not stated); assay: SEC-MALS; SEC-MALS-DLS, Superose 6 Increase 10/300 GL, 4 °C, PBS pH 7.4
[2] = target: extracellular domain of IL-13-RA2 human recombinant receptor protein (human) (UniProt Q14627); assay: ELISA
Sequence of UniProt Q14627 (Q14627 27-343): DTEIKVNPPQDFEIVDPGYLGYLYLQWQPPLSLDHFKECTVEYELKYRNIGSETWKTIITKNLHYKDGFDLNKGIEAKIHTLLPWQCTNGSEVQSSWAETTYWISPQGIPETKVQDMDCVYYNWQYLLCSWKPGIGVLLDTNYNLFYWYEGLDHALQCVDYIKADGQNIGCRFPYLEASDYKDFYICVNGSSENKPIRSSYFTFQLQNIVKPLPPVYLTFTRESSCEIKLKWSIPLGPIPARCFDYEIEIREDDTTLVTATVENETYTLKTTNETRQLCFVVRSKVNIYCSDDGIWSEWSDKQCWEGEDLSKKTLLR

For “DT390-IL-13 single-chain fusion cytotoxin (monomer)”, the stoichiometry N [1] was 2, the EC50 [2] was 1.9 nM and the Kd [2] was 0.0674 nM.

For “DT390-IL-13 single-chain fusion cytotoxin, dimer (complex)”, the EC50 [2] was 6.4 nM.

“DT390-IL-13 single-chain fusion cytotoxin, oligomers (complex)” was tested, and the EC50 [2] was 6.8 nM.
